Data published in PMC10465527.

Target: B55α/δ regulatory subunit of PP2A (human (endogenous in HAP1)) (UniProt P63151)
Assay: co-IP; B56α (1D3-E12) or B55α/δ (2G9) antibody crosslinked to protein G-Sepharose, 1 h with lysates of HAP1 wild-type and lcmt1-/- cells; lysis buffer 10% glycerol, 135 mM NaCl, 20 mM Tris pH 8.0, 1% Nonidet P-40; immunoblot, co-precipitated A and C normalised to the B subunit

Sequence of UniProt P63151 (P63151 whole entry, stated change not applied): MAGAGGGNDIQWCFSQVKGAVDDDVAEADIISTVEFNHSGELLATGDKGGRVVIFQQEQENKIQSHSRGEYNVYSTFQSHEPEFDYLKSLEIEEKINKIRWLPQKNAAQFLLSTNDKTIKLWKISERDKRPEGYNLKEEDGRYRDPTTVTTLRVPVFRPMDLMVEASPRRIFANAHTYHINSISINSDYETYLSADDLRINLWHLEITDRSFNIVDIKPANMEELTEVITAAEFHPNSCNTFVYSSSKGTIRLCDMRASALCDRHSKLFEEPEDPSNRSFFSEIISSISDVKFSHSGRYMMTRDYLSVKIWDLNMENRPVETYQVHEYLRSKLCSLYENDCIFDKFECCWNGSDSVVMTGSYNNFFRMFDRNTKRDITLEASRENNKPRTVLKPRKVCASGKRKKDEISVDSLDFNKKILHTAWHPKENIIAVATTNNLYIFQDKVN

non-methylated PP2A-C (catalytic C subunit of PP2A) (from UniProt P67775 1-309) (natural protein)
trimeric holoenzyme level relative to wild-type cells (of the levels in wild-type cells): 0.33
